Results: publication PMC10776498

B1: GSDMD (gasdermin-D): S338A (protein)
parent chain: MGSAFERVVRRVVQELDHGGEFIPVTSLQSSTGFQPYCLVVRKPSSSWFWKPRYKCVNLSIKDILEPDAAEPDVQRGRSFHFYDAMDGQIQGSVELAAPGQAKIAGGAAVSDSSSTSMNVYSLSVDPNTWQTLLHERHLRQPEHKVLQQLRSRGDNVYVVTEVLQTQKEVEVTRTHKREGSGRFSLPGATCLQGEGQGHLSQKKTVTIPSGSTLAFRVAQLVIDSDLDVLLFPDKKQRTFQPPATGHKRSTSEGAWPQLPSGLSMMRCLHNFLTDGVPAEGAFTEDFQGLRAEVETISKELELLDRELCQLLLEGLEGVLRDQLALRALEEALEQGQSLGPVEPLDGPAGAVLECLVLSSGMLVPELAIPVVYLLGALTMLSETQHKLLAEALESQTLLGPLELVGSLLEQSAPWQERSTMSLPPGLLGNSWGEGAPAWVLLDECGLELGEDTPHVCWEPQAQGRMCALYASLALLSGLSQEPH
B2: GSDMD (gasdermin-D): TMG (protein)
parent chain: B1 parent chain

Key:
[1] = western blot of GSDMD-N, HEK293T input; conditions: control: GSDMD-WT
[2] = western blot of GSDMD-N, HUVECs; conditions: glycan gained; control: HUVECs, LPS without TMG

Protein	other: proteolytic processing ([1]; glycan lost, LPS + TMG)	other: proteolytic processing ([1]; glycan gained, LPS without TMG)	other: proteolytic processing [2]
B1	increases	–	–
B2	–	decreases	decreases
